Laboratory results: PMC7643160, “An ambruticin-sensing complex modulates Myxococcus xanthus development and mediates myxobacterial interspecies communication” (Nature Communications, 2020)

T1: AskC (hybrid histidine kinase, MXAN_6734) (Myxococcus xanthus, UniProt Q1CXM2)
T1 construct: C-terminally His6-tagged AskC
T1 sequence (Q1CXM2 1-671): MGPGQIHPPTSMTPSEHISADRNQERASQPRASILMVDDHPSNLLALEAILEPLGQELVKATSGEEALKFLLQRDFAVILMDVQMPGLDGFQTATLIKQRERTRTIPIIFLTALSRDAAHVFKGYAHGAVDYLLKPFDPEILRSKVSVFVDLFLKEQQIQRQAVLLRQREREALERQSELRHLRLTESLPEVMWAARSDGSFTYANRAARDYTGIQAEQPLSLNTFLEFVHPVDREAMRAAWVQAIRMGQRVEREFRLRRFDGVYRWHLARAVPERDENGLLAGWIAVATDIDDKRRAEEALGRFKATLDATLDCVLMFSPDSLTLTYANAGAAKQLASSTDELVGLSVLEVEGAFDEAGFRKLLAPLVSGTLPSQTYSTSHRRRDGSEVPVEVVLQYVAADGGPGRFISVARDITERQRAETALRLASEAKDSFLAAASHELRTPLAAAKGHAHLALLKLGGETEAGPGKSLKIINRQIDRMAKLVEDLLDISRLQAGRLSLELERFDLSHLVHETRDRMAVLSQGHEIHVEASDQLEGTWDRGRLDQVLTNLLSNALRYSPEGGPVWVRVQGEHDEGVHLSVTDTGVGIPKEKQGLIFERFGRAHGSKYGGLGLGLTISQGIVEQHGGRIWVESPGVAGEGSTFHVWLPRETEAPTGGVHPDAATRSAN


What was measured:
[1] = molecular target: T1, AskC (hybrid histidine kinase, MXAN_6734); experiment: MST and SPR with purified protein (KD […] by MST, […] by SPR; mean given); type: binding
[2] = molecular target: AskA (ambruticin sensor kinase A, MXAN_0712), hybrid histidine kinase (Myxococcus xanthus); experiment: MST + SPR; average of the KD values from MST and from SPR (mean KD of Table 1)
[3] = molecular target: AskB (ambruticin sensor kinase B, MXAN_6735), hybrid histidine kinase (Myxococcus xanthus); experiment: as above
[4] = molecular target: AskA (ambruticin sensor kinase A, MXAN_0712), hybrid histidine kinase (Myxococcus xanthus); experiment: SPR; equilibrium analysis on Biacore X100; ligand amine-coupled to a CM5 chip (which partner is not told); analyte in KB1 running buffer, 0.001 to 1000 µM; 25 °C; 1:1 fit; triplicates
[5] = molecular target: AskB (ambruticin sensor kinase B, MXAN_6735), hybrid histidine kinase (Myxococcus xanthus); experiment: as above
[6] = molecular target: AskA (ambruticin sensor kinase A, MXAN_0712), hybrid histidine kinase (Myxococcus xanthus); experiment: MST; NT647-labelled C-terminally His6-tagged AskA, AskB or AskC titrated with serial 1:1 dilutions of non-labelled protein; buffer KB1 (500 mM NaCl, 25 mM HEPES, 0.2% Triton X100, pH 7.4); 25 °C; 40% LED power, 40% MST power; triplicates
[7] = molecular target: AskB (ambruticin sensor kinase B, MXAN_6735), hybrid histidine kinase (Myxococcus xanthus); experiment: as above
[8] = test system: MrpC (Myxococcus xanthus DK1622); experiment: EMSA; details: EMSA: 25 mM K-acetate, 8 mM MgSO4, 0.1 mM DTT, 15 mM Tris-HCl pH 7.3, 8% glycerol, 250 ng poly-dIdC, 200 fmol DNA, 15 ul, 30 C 30 min. Pull-down (purified): …
[9] = molecular target: AskC (MXAN_6734), hybrid histidine kinase, C-terminally His6-tagged (Myxococcus xanthus); experiment: MST + SPR; average of the KD values from MST and from SPR (mean KD of Table 1)
[10] = molecular target: AskC (MXAN_6734), hybrid histidine kinase, C-terminally His6-tagged (Myxococcus xanthus); experiment: SPR; equilibrium analysis on Biacore X100; ligand amine-coupled to a CM5 chip (which partner is not told); analyte in KB1 running buffer, 0.001 to 1000 µM; 25 °C; 1:1 fit; triplicates
[11] = molecular target: AskC (MXAN_6734), hybrid histidine kinase, C-terminally His6-tagged (Myxococcus xanthus); experiment: MST; NT647-labelled C-terminally His6-tagged AskA, AskB or AskC titrated with serial 1:1 dilutions of non-labelled protein; buffer KB1 (500 mM NaCl, 25 mM HEPES, 0.2% Triton X100, pH 7.4); 25 °C; 40% LED power, 40% MST power; triplicates

Chain of AskA (ambruticin sensor kinase A, MXAN_0712), hybrid histidine kinase (Myxococcus xanthus) (main, as listed by the source): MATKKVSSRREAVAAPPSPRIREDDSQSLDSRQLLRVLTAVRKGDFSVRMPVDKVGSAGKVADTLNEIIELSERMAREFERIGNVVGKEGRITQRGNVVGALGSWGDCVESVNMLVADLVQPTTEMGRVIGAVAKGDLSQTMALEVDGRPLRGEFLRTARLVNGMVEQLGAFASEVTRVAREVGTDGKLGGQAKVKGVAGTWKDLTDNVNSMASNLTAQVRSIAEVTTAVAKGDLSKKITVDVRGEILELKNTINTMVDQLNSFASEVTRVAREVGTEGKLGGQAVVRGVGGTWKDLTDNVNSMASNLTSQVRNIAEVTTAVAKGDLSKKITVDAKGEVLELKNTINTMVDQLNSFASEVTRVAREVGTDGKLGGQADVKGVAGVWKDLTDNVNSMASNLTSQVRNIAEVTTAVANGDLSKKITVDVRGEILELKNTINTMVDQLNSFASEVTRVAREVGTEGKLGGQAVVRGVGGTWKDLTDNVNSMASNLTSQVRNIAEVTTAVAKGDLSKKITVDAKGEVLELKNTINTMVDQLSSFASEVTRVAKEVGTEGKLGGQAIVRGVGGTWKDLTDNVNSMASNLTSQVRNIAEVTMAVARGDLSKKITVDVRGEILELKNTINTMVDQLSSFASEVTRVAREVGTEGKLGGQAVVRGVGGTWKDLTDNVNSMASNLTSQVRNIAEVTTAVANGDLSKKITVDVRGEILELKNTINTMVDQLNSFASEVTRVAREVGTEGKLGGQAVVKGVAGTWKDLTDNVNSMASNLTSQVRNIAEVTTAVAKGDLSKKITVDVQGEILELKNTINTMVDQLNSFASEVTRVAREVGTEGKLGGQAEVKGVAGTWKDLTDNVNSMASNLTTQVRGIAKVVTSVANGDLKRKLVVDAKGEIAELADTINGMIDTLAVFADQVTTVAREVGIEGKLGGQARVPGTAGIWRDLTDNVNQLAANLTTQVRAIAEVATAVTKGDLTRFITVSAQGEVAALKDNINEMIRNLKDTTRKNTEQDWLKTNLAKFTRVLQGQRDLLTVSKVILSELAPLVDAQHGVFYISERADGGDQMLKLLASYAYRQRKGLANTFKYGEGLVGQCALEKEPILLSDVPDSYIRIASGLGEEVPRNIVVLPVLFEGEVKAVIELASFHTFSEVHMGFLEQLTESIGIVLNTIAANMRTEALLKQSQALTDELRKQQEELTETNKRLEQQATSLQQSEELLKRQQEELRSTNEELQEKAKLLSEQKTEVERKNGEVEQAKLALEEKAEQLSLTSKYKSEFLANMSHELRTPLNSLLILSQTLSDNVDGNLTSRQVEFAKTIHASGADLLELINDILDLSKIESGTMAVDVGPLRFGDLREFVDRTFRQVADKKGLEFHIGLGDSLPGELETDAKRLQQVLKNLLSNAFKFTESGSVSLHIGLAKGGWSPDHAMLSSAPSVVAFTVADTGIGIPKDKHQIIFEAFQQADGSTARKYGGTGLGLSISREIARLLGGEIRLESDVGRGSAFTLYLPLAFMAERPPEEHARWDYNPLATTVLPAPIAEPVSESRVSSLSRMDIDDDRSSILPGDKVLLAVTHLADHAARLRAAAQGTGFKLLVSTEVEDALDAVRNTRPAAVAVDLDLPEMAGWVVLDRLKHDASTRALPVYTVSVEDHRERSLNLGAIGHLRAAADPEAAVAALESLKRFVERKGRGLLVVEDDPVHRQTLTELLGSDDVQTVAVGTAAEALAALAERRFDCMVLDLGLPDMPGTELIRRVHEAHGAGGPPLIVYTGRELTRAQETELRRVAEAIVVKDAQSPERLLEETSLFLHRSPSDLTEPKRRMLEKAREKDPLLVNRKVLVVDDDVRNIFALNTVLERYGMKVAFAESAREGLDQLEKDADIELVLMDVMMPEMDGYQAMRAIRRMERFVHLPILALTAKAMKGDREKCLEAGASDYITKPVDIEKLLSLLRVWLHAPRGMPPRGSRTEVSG
Chain of AskB (ambruticin sensor kinase B, MXAN_6735), hybrid histidine kinase (Myxococcus xanthus) (main, as listed by the source): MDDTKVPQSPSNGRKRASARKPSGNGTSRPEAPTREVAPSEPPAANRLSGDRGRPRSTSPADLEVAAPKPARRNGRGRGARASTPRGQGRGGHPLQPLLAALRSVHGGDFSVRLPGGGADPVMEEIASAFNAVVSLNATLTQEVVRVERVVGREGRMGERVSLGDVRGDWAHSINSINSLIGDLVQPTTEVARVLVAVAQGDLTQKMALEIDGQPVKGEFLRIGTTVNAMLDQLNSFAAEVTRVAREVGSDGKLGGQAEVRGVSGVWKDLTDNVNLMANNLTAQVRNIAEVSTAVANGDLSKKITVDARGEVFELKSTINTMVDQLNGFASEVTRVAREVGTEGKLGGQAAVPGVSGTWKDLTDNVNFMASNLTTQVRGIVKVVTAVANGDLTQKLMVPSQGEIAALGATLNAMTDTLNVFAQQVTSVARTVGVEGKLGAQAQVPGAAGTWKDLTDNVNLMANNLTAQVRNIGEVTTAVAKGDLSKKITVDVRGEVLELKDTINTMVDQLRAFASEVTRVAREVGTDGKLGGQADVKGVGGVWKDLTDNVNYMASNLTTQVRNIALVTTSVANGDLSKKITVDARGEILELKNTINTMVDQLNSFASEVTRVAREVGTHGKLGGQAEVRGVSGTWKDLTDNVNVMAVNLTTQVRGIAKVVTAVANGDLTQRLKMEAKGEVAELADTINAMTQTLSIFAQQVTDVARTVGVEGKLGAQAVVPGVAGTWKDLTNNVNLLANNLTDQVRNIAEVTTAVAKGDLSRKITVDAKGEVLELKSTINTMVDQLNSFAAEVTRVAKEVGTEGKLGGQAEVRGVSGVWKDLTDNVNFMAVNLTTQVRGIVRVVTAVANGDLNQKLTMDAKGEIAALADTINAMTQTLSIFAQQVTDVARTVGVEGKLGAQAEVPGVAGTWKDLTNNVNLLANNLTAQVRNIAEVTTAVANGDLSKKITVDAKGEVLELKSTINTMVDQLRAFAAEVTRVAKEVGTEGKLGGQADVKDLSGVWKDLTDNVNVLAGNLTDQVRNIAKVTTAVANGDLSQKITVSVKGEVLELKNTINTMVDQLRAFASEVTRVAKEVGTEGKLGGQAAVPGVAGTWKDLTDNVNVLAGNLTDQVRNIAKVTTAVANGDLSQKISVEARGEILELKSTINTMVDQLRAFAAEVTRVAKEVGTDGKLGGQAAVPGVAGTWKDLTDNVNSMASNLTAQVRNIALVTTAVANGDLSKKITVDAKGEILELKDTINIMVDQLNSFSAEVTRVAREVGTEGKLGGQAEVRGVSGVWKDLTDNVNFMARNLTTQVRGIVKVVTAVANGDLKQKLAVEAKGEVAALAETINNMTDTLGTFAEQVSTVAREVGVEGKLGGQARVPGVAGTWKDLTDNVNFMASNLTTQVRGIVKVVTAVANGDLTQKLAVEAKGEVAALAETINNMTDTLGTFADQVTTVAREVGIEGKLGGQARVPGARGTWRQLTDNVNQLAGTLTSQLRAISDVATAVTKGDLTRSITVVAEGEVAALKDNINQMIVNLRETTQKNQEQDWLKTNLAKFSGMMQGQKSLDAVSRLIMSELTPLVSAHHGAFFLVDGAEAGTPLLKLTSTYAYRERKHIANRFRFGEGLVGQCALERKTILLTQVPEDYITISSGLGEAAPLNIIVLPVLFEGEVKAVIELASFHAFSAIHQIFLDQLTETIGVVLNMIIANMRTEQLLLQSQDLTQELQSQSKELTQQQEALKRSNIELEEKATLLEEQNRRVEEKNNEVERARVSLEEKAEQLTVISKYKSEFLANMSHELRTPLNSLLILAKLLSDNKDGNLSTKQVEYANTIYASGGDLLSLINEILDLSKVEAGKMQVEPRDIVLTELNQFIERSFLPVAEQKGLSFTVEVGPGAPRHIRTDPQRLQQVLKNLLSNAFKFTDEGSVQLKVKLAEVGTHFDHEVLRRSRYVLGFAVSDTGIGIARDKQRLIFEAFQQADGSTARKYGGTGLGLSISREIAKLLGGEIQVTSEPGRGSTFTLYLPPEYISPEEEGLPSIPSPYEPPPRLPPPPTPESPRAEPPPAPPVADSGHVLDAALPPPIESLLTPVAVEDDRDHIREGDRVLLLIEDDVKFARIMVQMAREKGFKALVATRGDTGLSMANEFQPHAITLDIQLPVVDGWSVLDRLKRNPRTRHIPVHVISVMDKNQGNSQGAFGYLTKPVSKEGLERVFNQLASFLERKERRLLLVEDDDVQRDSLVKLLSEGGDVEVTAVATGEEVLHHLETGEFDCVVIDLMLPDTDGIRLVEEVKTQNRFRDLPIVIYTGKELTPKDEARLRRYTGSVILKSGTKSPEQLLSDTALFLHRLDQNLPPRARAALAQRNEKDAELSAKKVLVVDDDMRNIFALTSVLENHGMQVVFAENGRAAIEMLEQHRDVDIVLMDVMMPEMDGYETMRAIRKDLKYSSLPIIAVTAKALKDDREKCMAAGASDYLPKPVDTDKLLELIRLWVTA

Molecule	mean KD [2] [nM]	mean KD [3] [nM]	Kd [4] [nM]	Kd [5] [nM]	Kd [6] [nM]	Kd [7] [nM]	mean KD [9] [nM]	Kd [10] [nM]	Kd [11] [nM]	Kd [1] [nM]	Kd [8] [nM]
CCC1OC(/C(C)=C/C(C)/C=C/C2C(C)C2/C=C/C2OC(CC(=O)O)CC(N(C)C)C2O)CC=C1C (centres unmarked) [ambVS3, ambruticin VS-3]	–	–	–	–	–	–	–	–	–	300000 ± 200000	–
HEX-PmrpC	–	–	–	–	–	–	–	–	–	–	< 5
MrpC, transcriptional regulator of development (natural protein) MHGFNRPLGPIGSNVVAPLQTTSSGMMVTANKLVPGQEAIDFKGYFKVESFPHNSTIYRPGDNTDRVYLLKSGRVRLMRIGKNSTRSVVSILRPGDLFGELFRPEGTPIEEMAIAAGEAEVWSIEGRDFRAQLEARPALAVDVVRAYAERVRALRKRVLGLTFKEVPARLADTLLTLVEAHGERCPHGGETDLRGITQQDLADLVGASRSFVSTLINEMKREGVLGNVGRILCVRDQKALRKIAGKEK	800	1200	1000	300	500	2100	1500	1600	1400	–	–
FruA, transcriptional regulator of development (natural protein) MATNQAAIRVSILEGPWAAWQGLADGLRGEGVQVSSVTRDVRLFLDSLGTDPPQVAVMDVEGDSEAAVGCSVTEGINLLREARKRRLEVRMLLLSAVSTPEIISQCFDEGASGYLFRAGLGTTAVASAINSLVRGERLFPVQLLRNDFEHPPVTSPTASVLLALTQREREVLAYVAGGADNLKIAAHLQIAERTVKSHVTQLYRKLGAENRTQLALRACHLGVRPPPDL	1000	1200	500	200	1400	2100	1400	1500	1300	–	–

Now from value to molecule, other results behind:

mean KD [2] [nM]	mean KD [3] [nM]	Kd [4] [nM]	Kd [5] [nM]	Kd [6] [nM]	Kd [7] [nM]	mean KD [9] [nM]	Kd [10] [nM]	Kd [11] [nM]	Molecule	Kd [1] [nM]	Kd [8] [nM]
2800	700	1400	400	4100	900	–	–	–	AskC (MXAN_6734), hybrid histidine kinase, C-terminally His6-tagged (enzyme)	–	–
2800	–	3000	–	2300	–	–	–	–	AskB (ambruticin sensor kinase B, MXAN_6735), hybrid histidine kinase (enzyme)	–	–
